The data set is described as follows: yeast display, Sf9 membrane polyspecificity reagent, FACS + sequencing; frameworks hold sequencing errors. Put shortly:
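Polyreactivity labels are assigned by the sorting gate from which each nanobody was recovered. The gates were low and high (top ~1%), set on anti-HA fluorescence for expression and streptavidin fluorescence for reagent binding. Before sorting, galactose-induced (36–48 hours) yeast display cells were stained for 1 hour at 4 °C with 10% biotinylated, detergent-solubilized Sf9 membrane reagent.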
With “QVQLVESGGGLVQAGGSLRLSCAASGRIFVYNVMGWYSQSPGKERELVAAISWGTGSTYADSVKGRFTISRDNAKNTVYLQMNSLKPEDTAVYYCADDSFIPPYDHWGQGTQVTVSS”, the “polyreactivity (PSR sort gate)” value is “low polyreactivity”.
In the case of “QVQLVESGGGLVQAGGSLRLSCAASGRIFVYYAMGWYRPAPGKERELVAAITSGGSTYYADSVKGRFTISRDNANNTVYLQMNSLKPEDTAVYYSAAYRYYYLVYQQHREYGYWGQGSQVTVSS”, the “polyreactivity (PSR sort gate)” value was “high polyreactivity”.
Regarding “QVQLVESGGGLVQAGGSLRLSCAASGRIFVYYTMGWYRQAPGKERELVAAITGSGGSTYYADSVKGRFTISRDNAKNTVYLQMNSLKPEDTAVYYCAARYASTGGGYKYYYWGQGTQVTVSS”, the “polyreactivity (PSR sort gate)” value is recorded as “high polyreactivity”.
As for “QVQLVESGGGLVQAGGSLRLSCAASGRIFVYYVMGWYRQAPGKERELVAAITYSGGSTYYADSVKGRFTISRDNAKNTVYLQMNRLKTEDTAVYYCNKVDAFGIVRLYYWGQGTQVTVSS”, the “polyreactivity (PSR sort gate)” value is “low polyreactivity”.
“QVQLVESGGGLVQAGGSLRLSCAASGRIFWANAMGWYRQAPGKERELVAAISRRGGSTYYADSVKGRFTISRDNAKNTVSLQMNSLKPEDTAVYYCNAVSPYTSDDYDYWGQGTQVTVSS”: the “polyreactivity (PSR sort gate)” value was “high polyreactivity”.
In the case of “QVQLVESGGGLVQAGGSLRLSCAASGRIFWDIDMGWYRQAPGKEWELVAAISRRGGSTSYADSVKGRFTISRDNAKTTVYLQINSLKPEDTAVYYCNVRTRWTRVRRYDYWGQGTQVTVSS”, the “polyreactivity (PSR sort gate)” value is given as “high polyreactivity”.
Regarding “QVQLVESGGGLVQAGGSLRLSCAASGRIFWDNAMGWYRQAPGKERELVAAISDSVVITYYADSVKGRFTISRDNAKNTVYLQMNSLKPEDTAVYYCAADKRGSVYLSSFWMDYWGQGTQVTVSS”, the “polyreactivity (PSR sort gate)” value was “low polyreactivity”.
“QVQLVESGGGLVQAGGSLRLSCAASGRIFWHYAMGWYRQAPGKERELVAAIDYSGGRTRYADSVKGRFTISRDNAKNTVYLQMNSLKPEDTAVYYCAARRSSWGSFTGYYYWGQGTQVTVSS”: the “polyreactivity (PSR sort gate)” value was “high polyreactivity”.
With “QVQLVESGGGLVQAGGSLRLSCAASGRIFWINAMGWYRQAPGKERELVATISSGSTSYADSVKGRFTISRDNAKNTVYLHLNSLKPEDTAVYYCAVSLRYTRSGAYYYWGQGTQVTVSS” the entry was “low polyreactivity”.
For “QVQLVESGGGLVQAGGSLRLSCAASGRIFWLYAMGWYRQAPGKERELVAVISWSGGTTYYADSVKGRFTISRDNAKNTVYLQMNSLKPEYTAVYYCAAQVGYYTNYGEFDYLGQGTQVTVSS”, the “polyreactivity (PSR sort gate)” value is listed as “low polyreactivity”.
With “QVQLVESGGGLVQAGGSLRLSCAASGRIFWPYAMGWYRQAPGKERELVAAITSGGSTYYADSVKGRFTLSRDNAKNTVYLQMTSLKPEDTAVYYCAKRSSGVSVPVAYGGIKRYNSWGQGTQVTVSS” the entry was “low polyreactivity”; with “QVQLVESGGGLVQAGGSLRLSCAASGRIFWRNTMGWYRQAPGKERELVAAINYSGGRTYYADSVKGRFTISRDNAKNTVYLQMNSLKPEDTAVYYCAATPPVATNGRYYYWGQGTQVTVSS”, “low polyreactivity”.
With “QVQLVESGGGLVQAGGSLRLSCAASGRIFWVNVMGRYIQAPGKERELVPAITRGASTYADSVKGRFTISRDNAKNTVYLQMNSLKPEDTAVYYCAADTKRRSIRYDYWGEGTQVTVSS” the entry was “high polyreactivity”; with “QVQLVESGGGLVQAGGSLRLSCAASGRIFWVNVMGWSRQAPGKERELVAAITRGASTYADSVKGRFTISRDNAKNTVYLQMNSLKPEDTAVYYCAADTKRRSIRYDYWGQGTQVTVSS”, “high polyreactivity”.
“QVQLVESGGGLVQAGGSLRLSCAASGRIFWYYAMGWYRQAPGKERELVATISSRSGSTYYADSVKGRFTISRDNAKNTVNLQMNSLKPEDTAVYYCAAGTPYYLGYRHNYWGQGTQVTVSS”: the “polyreactivity (PSR sort gate)” value is given as “high polyreactivity”.
On to “QVQLVESGGGLVQAGGSLRLSCAASGRIFWYYAMGWYRQAPGKERELVDAISVDGGSTYDADSVKGRFTISRDNAKNTVYLQMNSLKPEDTAIYYCAAQKYPGFTHGYWGQGTQVTVSS”, for which the “polyreactivity (PSR sort gate)” value is “low polyreactivity”.
In the case of “QVQLVESGGGLVQAGGSLRLSCAASGRIFWYYAVGWYRQAPGKERELVARISSSGGSTYYADSVKGRFTISRDNANNTVYLQMNSLKPEDTAVYYCAKERYSGSSRYPMDYWGQGTQVTVSS” it was “high polyreactivity”; in that of “QVQLVESGGGLVQAGGSLRLSCAASGRIFWYYDMGWYRQAPGKERELVAAITSGGRTYYADSVKGRFTISRDNAKNTVYLQMNRLKPEDTAVYYCAAEGFYTTGSPYSGGLDYWGQGTQVTVSS”, “low polyreactivity”.
With “QVQLVESGGGLVQAGGSLRLSCAASGRIFYANVMGWYRQAPGKEREFVSAIRWSGGRSYYADSVKGRFTISRDNAKYTVYLQMNSLKPEDTAVYYCAADGRVQSPQKFGYDYWGQGTQVTVSS” the entry was “low polyreactivity”; with “QVQLVESGGGLVQAGGSLRLSCAASGRIFYAYAMGWYRPAPGKERELVAAITWRGGRTFYADSVKGRFTISRDNAKNTVYLQMNSLKPEDTAVYYCATRGAPYGMDYWGQGTQVTVSS”, “high polyreactivity”.
With “QVQLVESGGGLVQAGGSLRLSCAASGRIFYAYAMGWYRQAPGKEREFVAAISKRGGSTYYADSVKGRFTISRDNAKNTVYFQMNSLKPEDTAVYYCAADHEAIVRYDYWGQGTQVTVSS”, the “polyreactivity (PSR sort gate)” value is given as “low polyreactivity”.
In the case of “QVQLVESGGGLVQAGGSLRLSCAASGRIFYAYAMGWYRQAPGKERELVAAISSGGSTKYADSVKGRFTISRDNAKNTVYLQMNSLKPEDTAVYYCNADATAQSFGTLFDYWGQGTQVTVSS” it was “low polyreactivity”; in that of “QVQLVESGGGLVQAGGSLRLSCAASGRIFYAYAMGWYRQAPGKERELVAAISWSGGSTYYADSVKGRFTISRDNAKNTVNLQMNSLKPEDTAVYYCNADYWGQGTQVTVSS”, “low polyreactivity”.
On to “QVQLVESGGGLVQAGGSLRLSCAASGRIFYAYAMGWYRQAPGTERELVAAISSGGSTKYADSVKGRFTISRDNAKNTVYLQMNSLKPEDTAVYYCNADATAQSFGSLFDYWGLGTQVTVSS”, for which the “polyreactivity (PSR sort gate)” value is “low polyreactivity”.
With “QVQLVESGGGLVQAGGSLRLSCAASGRIFYDYTMGWYRQAPGKERELVAAINSGGGSTYYADSVKGRFTISRDNAKNTVYLQMNSLKPEDTAVYYCNADGQWNIWEYDYWGQGTQVTVSS”, the “polyreactivity (PSR sort gate)” value is reported as “high polyreactivity”.
In the case of “QVQLVESGGGLVQAGGSLRLSCAASGRIFYFNAMGWYRPAPGKDRELVADISSGGRTNYADSVKGRFTISRDNAKNTVYLQMNSLKPEDTAVYYCNAEAYTSSGGYRGYDFDYWGQGTQVTVSS” it was “low polyreactivity”.
In the case of “QVQLVESGGGLVQAGGSLRLSCAASGRIFYFYAMGWYRQAPGKERELVAAIDWSGGSTYYADSVKGRFTISRDNAKNTVYLQMNSLKPEDTAVYSCAARWRSKGVQYYYWGQGSQVTVSS”, the “polyreactivity (PSR sort gate)” value was “high polyreactivity”.
For “QVQLVESGGGLVQAGGSLRLSCAASGRIFYFYVMGWYRQAPGKERELVAGISDGSTNYADSVKGRFTISRDNAKNTVYLQMNSLKPEDTAVYYCAKDPLVIRFVQGRFGYDYWGQGTQVTVSS”, the “polyreactivity (PSR sort gate)” value is listed as “low polyreactivity”.
Regarding “QVQLVESGGGLVQAGGSLRLSCAASGRIFYGNPMGWYRQAPGKERELVAAISSGGGSTYYADSVKGRFTISRDNAKNTVYLQMNSLKPEDTAVYYCAADPVHRFPGTGGYWGQGTQVTVSS”, the “polyreactivity (PSR sort gate)” value is on record as “low polyreactivity”.
In the case of “QVQLVESGGGLVQAGGSLRLSCAASGRIFYGYTMGWYRQAPGKERELVAAITWSGGSTHYADSVKGRFTISRDNAKNTVYLQMNSLKPEVTAVYYCNARRRSVYRGLYDYWGQGTQVTVSS” it was “high polyreactivity”; in that of “QVQLVESGGGLVQAGGSLRLSCAASGRIFYGYTMGWYRQAPGKERELVARISSSGSTYYADSVKGRFTISRDNAKNTVYLQMNSLKPEDTAVYYCAAVRRRYGYDYWGQGTQVTVSS”, “high polyreactivity”; in that of “QVQLVESGGGLVQAGGSLRLSCAASGRIFYGYVMGLYRQAPGKERELVAAISLSGGRTYYADSVKGRFTISRDNAKNTVYLQMNSLKPEDTAVYYCAAEGIKGISYGHDYWGQGTQVTVSS”, “low polyreactivity”.
For “QVQLVESGGGLVQAGGSLRLSCAASGRIFYHYAMGWYRQAPGKERELVAASNSSGGSTHYADSVKGRFTISRDNAKNTVYLQMNSLKPEDTAVYYCAADGYWRDYSGYWDYYYIYDYWGQGTQVTVSS”, the “polyreactivity (PSR sort gate)” value is listed as “low polyreactivity”.
In the case of “QVQLVESGGGLVQAGGSLRLSCAASGRIFYINAMGWYRQAPGKERELVAAISWSGSSTYYADSVKGRFTISRDNAKNTVYLQMNSLKPEDTAVYYCAAVSYKRVDYWGQGTQVTVSS”, the “polyreactivity (PSR sort gate)” value was “high polyreactivity”.
With “QVQLVESGGGLVQAGGSLRLSCAASGRIFYINAMGWYRQAPGKERELVAAITGGDGSTTYADSVKGRFTISRDNAKNTVYLQMNSLKPEDTAVYYCNADTARKYAESQFDHWGQGTQVTVSS” the entry was “low polyreactivity”; with “QVQLVESGGGLVQAGGSLRLSCAASGRIFYIYTMGWYRQAPGKEREFVAGINWNGGSTYYADSVKGRFTISRDNAKNTVYLQMISLKPEDSEVYYCNADQYWDRYYYWGQGTQVTVSS”, “low polyreactivity”; with “QVQLVESGGGLVQAGGSLRLSCAASGRIFYKNVMGWYRQAPGKESELVATITRRGGRTFYADSVKGRFTISRDNAKNTVYLQMNSLKPEDTAVYYCATRRRIRSSFYYDIDYWGQGTQVTVSS”, “high polyreactivity”.
With “QVQLVESGGGLVQAGGSLRLSCAASGRIFYKYALGGYRQAPGKERELVAAISYSGGSTYYADSVKGRFTISRDNAKNTVYLQMKSLKPEDNAVYYCNAKPPFGVRSWGDYWGQGTQVTVSS” the entry was “low polyreactivity”; with “QVQLVESGGGLVQAGGSLRLSCAASGRIFYKYTMGWYRQAPGKERELVAAITDSDDSTYYADSVKGRFTISRDNAKITVYLQMNSLKPEDTAVYYCAASGPVTESDMDYWGQGTQVTVSS”, “low polyreactivity”.
For the sequence “QVQLVESGGGLVQAGGSLRLSCAASGRIFYLNAMGWYRQAPGKERELVAAISSRGSRTYYADSVKGRFTISRDNAKNTVYLQMNSLKPEDTAVYYCNVRQRKQPDTDDYWGQGTQVTVSS”, the “polyreactivity (PSR sort gate)” value is recorded as “high polyreactivity”.
For the sequence “QVQLVESGGGLVQAGGSLRLSCAASGRIFYLNAMGWYRVAPGKERELVAAITRSAASTHYADSVKGRFTISRDNAKNTVYLQMNSLKPEDTAVYYCAARFWYDYRHYDYWGQGTQVTVSS”, the “polyreactivity (PSR sort gate)” value is “low polyreactivity”.

Values taken from the nanobody polyreactivity screen of Harvey et al. (2022).
